The chains are these.
B1: AUP1 (parent)
chain: EGLLRFSSWPFSIQDVVQPLTLQV
B2: LOXL2 (parent)
chain: RLLRFSSQIHNNGQSDFRPKNGRH
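Note: lentivirally expressed fusions sorted by FACS into six bins by GFP to DsRed ratio, PSI derived from sequencing read proportions per bin multiplied by bin number.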

Variants of B1 are the subject of one data set. As to the kind of experiment: protein stability index of a GFP-peptide fusion (GPS, HEK-293T) (PSI 1-6); higher = more stable. To be noted: c terminus: a fixed tail appended.
In the case of EGLLRFSSWPFSIQDVVQPLTSQV [L22S], the protein stability index was determined as 1.85.

As for EGLLRFSSWPFSIQDVVQPLTYQV [L22Y], the protein stability index was found to be 2.16.

On to EGLLRFSSWPFSIQDVVQPLTQQV [L22Q], for which the protein stability index is 2.11.

Turning to EGLLRFSSWPFSIQDVVQPLTTQV [L22T], the protein stability index stood at 2.47.

As for EGLLRFSSWPFSIQDVVQPLTIQV [L22I], the protein stability index turned out to be 2.13.

On to EGLLRFSSWPFSIQDVVQPLTGQV [L22G], for which the protein stability index turned out to be 1.6.

In the case of EGLLRFSSWPFSIQDVVQPLTPQV [L22P], the protein stability index worked out at 1.52.

Consider EGLLRFSSWPFSIQDVVQPLTCQV [L22C], for which the protein stability index came out at 1.85.

For the variant EGLLRFSSWPFSIQDVVQPLTNQV [L22N], the protein stability index was 1.27.

With EGLLRFSSWPFSIQDVVQPLTDQV [L22D], the protein stability index is 2.61.

With EGLLRFSSWPFSIQDVVQPLTHQV [L22H], the protein stability index is 1.75.

On to EGLLRFSSWPFSIQDVEQPLTLQV [V17E], for which the protein stability index came out at 1.38.

Take EGLLRFSSWPFSIQDVFQPLTLQV [V17F]: the protein stability index amounted to 2.53.

As to EGLLRFSSWPFSIQDVCQPLTLQV [V17C], the protein stability index amounted to 3.22.

Take EGLLRFSSWPFSIQDVDQPLTLQV [V17D]: the protein stability index stood at 1.37.

Take EGLLRFSSWPFSIQDVKQPLTLQV [V17K]: the protein stability index was found to be 2.35.

Consider EGLLRFSSWPFSIQDVHQPLTLQV [V17H], for which the protein stability index is 3.15.

On to EGLLRFSSWPFSIQDVNQPLTLQV [V17N], for which the protein stability index was determined as 2.03.

EGLLRFSSWAFSIQDVVQPLTLQV [P10A]: the protein stability index was 3.01.

Turning to EGLLRFSSWGFSIQDVVQPLTLQV [P10G], the protein stability index was found to be 1.88.

Take EGLLRFSSWDFSIQDVVQPLTLQV [P10D]: the protein stability index was 2.04.

With EGLLRFSSWMFSIQDVVQPLTLQV [P10M], the protein stability index stood at 2.26.

Consider EGLLRFSSWYFSIQDVVQPLTLQV [P10Y], for which the protein stability index is 3.85.

Turning to EGLLRFSSWHFSIQDVVQPLTLQV [P10H], the protein stability index is 4.

EGLLRFSSWIFSIQDVVQPLTLQV [P10I]: the protein stability index is 1.55.

As for EGLLRFSSWTFSIQDVVQPLTLQV [P10T], the protein stability index turned out to be 2.79.

On to EGLLRFSSWVFSIQDVVQPLTLQV [P10V], for which the protein stability index stood at 3.54.

As to EGLLRFSSWNFSIQDVVQPLTLQV [P10N], the protein stability index amounted to 2.05.

As to EGLLRFSSWPFSIQDVVQPLTLQR [V24R], the protein stability index was found to be 2.75.

For EGLLRFSSWPFSIQDVVQPLTLQW [V24W], the protein stability index came to 2.53.

For the variant EGLLRFSSWPFSIQDVVQPLTLQG [V24G], the protein stability index is 2.14.

Turning to EGLLRFSSWPFSIQDVVQPLTLQF [V24F], the protein stability index stood at 3.48.

Take EGLLRFSSWPFSIQDVVQPLTLQS [V24S]: the protein stability index is 1.79.

In the case of EGLLRFSSWPFSIQDVVQPLTLQL [V24L], the protein stability index was 2.77.

As to EGLLRFSSWPFSIQDVVQPLTLQK [V24K], the protein stability index was 2.17.

As to EGLLRFSSWPFSIQDVVQPLTLQA [V24A], the protein stability index amounted to 2.15.

Turning to EGLLRFSSWPFSIQDVVQPLTLQN [V24N], the protein stability index was found to be 1.59.

As to EGLLRFSSWPFSIQDVVQPLTLQQ [V24Q], the protein stability index came to 1.53.

Turning to EGLLRFSSWPFSIQDVVQPLTLQY [V24Y], the protein stability index is 3.1.

As for EGLLRFSSWPFSIQDVVQPLTLQT [V24T], the protein stability index was 1.45.

Turning to EGLLRFSSWPFSIQDVVQPLTLQE [V24E], the protein stability index turned out to be 2.06.

EGLLRFSSWPFSIQDVVQPLTLQC [V24C]: the protein stability index is 2.23.

EGLLRFSSWPFSIQDVVQPLTLQI [V24I]: the protein stability index was found to be 2.38.

Turning to EGLLRFSSWPFSIQDVVQPLTLQM [V24M], the protein stability index worked out at 5.7.

Take EGLLRFSSWPFSIQDVVQPLTLQD [V24D]: the protein stability index turned out to be 1.97.

EGLLRFSSWPFSIQDVVQPLTLQP [V24P]: the protein stability index was 1.57.

In the case of EGLLRFSSWPFSITDVVQPLTLQV [Q14T], the protein stability index stood at 1.79.

As to EGLLRFSSWPFSIRDVVQPLTLQV [Q14R], the protein stability index amounted to 2.64.

As to EGLLRFSSWPFSIYDVVQPLTLQV [Q14Y], the protein stability index came out at 3.36.

The variants in another data set derive from B2. Described as above. The following applies: c terminus: a fixed tail appended.
Consider RLERFSSQIHNNGQSDFRPKNGRH [L3E], for which the protein stability index worked out at 4.34.

Consider RLFRFSSQIHNNGQSDFRPKNGRH [L3F], for which the protein stability index is 3.05.

Regarding RLDRFSSQIHNNGQSDFRPKNGRH [L3D], the protein stability index is 3.98.

As for RLARFSSQIHNNGQSDFRPKNGRH [L3A], the protein stability index is 3.59.

RLGRFSSQIHNNGQSDFRPKNGRH [L3G]: the protein stability index amounted to 3.63.

RLCRFSSQIHNNGQSDFRPKNGRH [L3C]: the protein stability index was found to be 2.88.

As to RLHRFSSQIHNNGQSDFRPKNGRH [L3H], the protein stability index was found to be 3.79.

For the variant KLLRFSSQIHNNGQSDFRPKNGRH [R1K], the protein stability index amounted to 3.15.

Turning to NLLRFSSQIHNNGQSDFRPKNGRH [R1N], the protein stability index worked out at 2.65.

As for HLLRFSSQIHNNGQSDFRPKNGRH [R1H], the protein stability index came out at 2.67.

Consider MLLRFSSQIHNNGQSDFRPKNGRH [R1M], for which the protein stability index was determined as 2.66.

YLLRFSSQIHNNGQSDFRPKNGRH [R1Y]: the protein stability index was found to be 1.71.

Consider FLLRFSSQIHNNGQSDFRPKNGRH [R1F], for which the protein stability index came out at 1.17.

With SLLRFSSQIHNNGQSDFRPKNGRH [R1S], the protein stability index worked out at 2.58.

With ILLRFSSQIHNNGQSDFRPKNGRH [R1I], the protein stability index is 1.78.

With PLLRFSSQIHNNGQSDFRPKNGRH [R1P], the protein stability index came to 4.01.

As to GLLRFSSQIHNNGQSDFRPKNGRH [R1G], the protein stability index amounted to 3.12.

Regarding ELLRFSSQIHNNGQSDFRPKNGRH [R1E], the protein stability index was 2.41.

For the variant DLLRFSSQIHNNGQSDFRPKNGRH [R1D], the protein stability index worked out at 2.97.

In the case of ALLRFSSQIHNNGQSDFRPKNGRH [R1A], the protein stability index came to 2.41.

Consider WLLRFSSQIHNNGQSDFRPKNGRH [R1W], for which the protein stability index came out at 1.65.

Turning to TLLRFSSQIHNNGQSDFRPKNGRH [R1T], the protein stability index is 2.57.

In the case of QLLRFSSQIHNNGQSDFRPKNGRH [R1Q], the protein stability index is 2.48.

Take VLLRFSSQIHNNGQSDFRPKNGRH [R1V]: the protein stability index amounted to 1.89.

In the case of LLLRFSSQIHNNGQSDFRPKNGRH [R1L], the protein stability index was 1.72.

Turning to CLLRFSSQIHNNGQSDFRPKNGRH [R1C], the protein stability index was found to be 2.78.

As to RWLRFSSQIHNNGQSDFRPKNGRH [L2W], the protein stability index was determined as 2.71.

RHLRFSSQIHNNGQSDFRPKNGRH [L2H]: the protein stability index was determined as 4.21.

Take RGLRFSSQIHNNGQSDFRPKNGRH [L2G]: the protein stability index stood at 4.6.

For RSLRFSSQIHNNGQSDFRPKNGRH [L2S], the protein stability index stood at 4.59.

For RDLRFSSQIHNNGQSDFRPKNGRH [L2D], the protein stability index stood at 4.51.

For RRLRFSSQIHNNGQSDFRPKNGRH [L2R], the protein stability index is 4.07.

Consider RVLRFSSQIHNNGQSDFRPKNGRH [L2V], for which the protein stability index came out at 3.52.

RNLRFSSQIHNNGQSDFRPKNGRH [L2N]: the protein stability index stood at 4.58.

As for RCLRFSSQIHNNGQSDFRPKNGRH [L2C], the protein stability index is 3.82.

For RKLRFSSQIHNNGQSDFRPKNGRH [L2K], the protein stability index stood at 3.91.

In the case of RILRFSSQIHNNGQSDFRPKNGRH [L2I], the protein stability index is 3.28.

As for RQLRFSSQIHNNGQSDFRPKNGRH [L2Q], the protein stability index came out at 4.12.

For RPLRFSSQIHNNGQSDFRPKNGRH [L2P], the protein stability index is 4.63.

On to RTLRFSSQIHNNGQSDFRPKNGRH [L2T], for which the protein stability index amounted to 4.69.

With RMLRFSSQIHNNGQSDFRPKNGRH [L2M], the protein stability index came out at 3.27.

As to RELRFSSQIHNNGQSDFRPKNGRH [L2E], the protein stability index is 3.98.

As to RALRFSSQIHNNGQSDFRPKNGRH [L2A], the protein stability index was 3.68.

In the case of RYLRFSSQIHNNGQSDFRPKNGRH [L2Y], the protein stability index turned out to be 3.35.

Regarding RFLRFSSQIHNNGQSDFRPKNGRH [L2F], the protein stability index was determined as 2.82.

The values are drawn from the supplement of paper PMC10567573.
